Four molecules from patent US20230242902A1, “A HIGHLY ERROR-PRONE […] R[…] FOR TARGETED CONTINUOUS EVOLUTION IN VIVO” (The Regents of the University of California, priority 2017, published 2023) can be followed below.

Positions count from the first letter of the chain named. In names and notes the source's numbering stands.

The labels stand for the following.
B1: L474D: TP-DNAP2 variant (protein)
chain: MDYKDKALNDLRNVYADFDSLPLDFRQILIKDRATLLQKEDVEKKILERQEDAKKYAEYLKQSEIPERISLPNIKRHKGVSISFEETSEDMVLEPRPFIFDGLNIRCFRRETIFSLKNKILNMVKESSSFKNVSRQSVSFMYFKIFNKGKVIASTKSVNIYEDKIDERLEDLCNNFDDVLKKIIDVTYGYESLFVSETYSYVIFYAKSIYFPQPRCVNNWGNNIPNILTFDSFKLFTANKNNVSCIKQCSRFLWQKDFNTLEEMIEYKNGNICIVTPQLHINDVRDIKSFNDIRLYSESPIKTFSVIDNTITYLFYFKEHLGVIFNITKSRHDRRVTKFSPLSKFSDVKNITVCFDIESYFDPEKESNQVNIPFICCASIIYNKVIGNIVDFEGRDCVAQMIEYVVDICGELNISSVELIAHNGGGYDFHYILSSMYNPAAIKNILIRNNSFISFNFAHDGVKFSVKDSYSFLDCSLANASKAFLNEETFKKTDFPHHDLKTADDLYKVYKEWSSVNTEINHVVEKEKLLITSEHIVNFTKNDKSKTLIEWSKDYCRNDVLVLSKVWLEFKNAVEDIFNCELVDQTMTLAGLSYKLFQANMPFDVELRHPNKEDYFNMREALIGGRCISVNGIYKDVLCLDVKSLYPASMAFYDQPYGSFKRVSSRPKDELGIYYVRVTPNRNNKSNFFPIRSHNKITYNNFEESTYIAWYTNVDIDIGLSEGHNIEYIPFDSYGNIGYSWSKKGKIFEKYIKDVLYKLKIKYEKQNNKVKRNVIKIIMNSLWGKFAQKWVNFEYFIKSEDDIDFESEEAYKIWDTDFMLIKKIKESTYSSKPIQNGVFTLSWARYHMKSIWDAGAKEGAECIYSDTDSIFVHKEHFKKNAKFMLNGLKVPIIGSEVGQLELECEFDKLLCAGKKQYMGFYTYFQDGKPCIKEKKRFKGIPSNYIIPELYAHLLSGADKEAKIQFLKFRREWGSVKGYIENKTVKAT
B2: L474V: TP-DNAP2 variant (protein)
chain: B1 chain with D474V
B3: L474A: TP-DNAP2 variant (protein)
chain: B1 chain with D474A
B4: S370L: TP-DNAP2 variant (protein, listed as Kluyveromyces lactis)
chain: MNDELAFLNSQIDDYSDDIEFLRTEVFRINRYSKSIYSLMKNSSKEAIKETIEFNKYGQEIHSKIKEKEISLIEAIKLMEKKYKYLRSLNKTKDKSKKKKIHTKDIETLKTIYKTKADFDIRNFKNAETFTYENYSLLIPSEKELIDLIPEIEEDYSYYFYVSLTITGPTIFGGVTRKVPIIDTYGDINKDFYNKIKENITKVLDRVPFYEEKESEIICKKVLITLTVNKWESIDKWYKNVKSKSKKFKDFTLFLASDTSKNCVQQCVEYLGGKWNTNYSLEKMIPQQKIVTYIPLLMDIQYVQSMEDLISDFDEPNTDCKNIARLLKWNGHMGVITKIDKDVKINRIQRKRIIDVENKEVKEVFFDIELFSDETKHQIPYLICWSYLGELYYRTGKNCIKEFVEEILSYNVDIILYAWYGSGYDYQHVLPYMKSKCIKDKYIIKNNMITYGELYYENAIIYLKDPYLFILTSLDKASKAFNVINKGEFPHSIIHSWEDLNKILPNWVKIQKRMIEYKDDNKLNIYYKNIEIFENDRNYNTILENAIEYCKVDVLAMEKVWIKFKKLLEKNLNITVSVKTFTLSQLSMKIMESKLPKYVKLYVPTLEEYSKIRNAIYGGRVISKNGIYEENIVYADVVSLYPSAMKLLKHSYGKPKLVDYIDFEKHGIYRVTLLNKHDQEPKNYLNFVPRRINRKLTWEWFKIHEGWYHTYDLIIAKSEGFDIYCHEGFEYPEKDYIFNDFIDTLYSMKETHTACSCEEQPCPIRMVAKIALNGGGYGKFVQKPIDKEIYIVKRDVVAGECDKLQENENGEICIGKRLVKRPLFYNLDSENYDKMIIEKEDEPIYSTQCGISILSASRYRLYKLCKQFENIDIIYSDTDSIFVKQKSVDWELFKSKCGSELGQLDSTIDDTKNAIISKMYIGGAKMYAFEYLNNKNKLITKLHCKGVPNYMLSLNQFKYLMESPDNTIAYKFEIIRRKLVNVITKDLIKDIKQT

For the first experiment, the system named is p2-encoded leu2*. Kind of experiment: p2 leu2* fluctuation tests in GA-Y021 (p2 mutation rate reporter strain). The class given is cell-based, S. cerevisiae. The note with it: TP-DNAP2 variant in trans, wt TP-DNAP2 in cis, 36 replicates, (95% C.I.). An excerpt:
For fluctuation tests used to measure p2 mutation rates, leu2* served as a marker for detecting mutational events. leu2* is a disabled version of LEU2, where Q180 is replaced with a TAA stop codon. Q180 is a permissive site where mutation to any other codon other than TAG and TGA results in functional reversion to LEU2. These mutational events can be detected by plating scores of parallel cultures on medium lacking leucine and counting the number distribution of functional LEU2 mutants.
For TP-DNAP2 library screening, each library member was subjected to small-scale leu2* fluctuation tests with six replicates. 190 library members from each yeast library transformation were arrayed and inoculated into liquid SC medium lacking uracil and histidine, and passaged three times at 1:10,000 dilutions. mKate2 fluorescence was measured at every passage on a microplate reader (TECAN Infinite® 200 PRO, settings: λex=588, λem=633) to track p2 copy number stabilization. To perform fluctuation tests, each library member was diluted 1:10,000 into liquid SC medium buffered to pH 5.8 and lacking uracil, histidine, tryptophan, and dilutions were split into six 100 μL replicates. Cultures were grown for 48 hours at 30° C. to reach saturation. Saturated cultures were washed with 200 μL 0.9% NaCl to remove residual leucine and resuspended in 35 μL of 0.9% NaCl. 10 μL of this resuspension was spot plated onto solid SC medium buffered to pH 5.8 and lacking uracil, histidine, tryptophan and leucine. Spot plates were allowed to dry and incubated at 30° C. Colonies were counted after 5 days. Colony counts were used to calculate the expected number of LEU2 functional mutants (m), using the p0 method (Foster, 2006, Methods Enzymol, 409:195-213).
To precisely measure p1 and p2 per-base substitution mutation rates, several modifications were made to the small-scale protocol. First, 36 replicates were performed for reconfirmation of candidate TP-DNAP2 mutators, and 48 replicates for genomic and mutual orthogonality experiments. Titers were also determined for each strain after spot plating by pooling the residual volume from 4 replicates and plating dilutions on YPD. The expected number of LEU2 functional mutants (m) was determined by the Ma-Sandri-Sarkar maximum likelihood estimator (as calculated by the FALCOR tool and corrected for partial plating (Foster, 2006, Methods Enzymol, 409:195-213; Sarkar et al., 1992, Genetica, 85:173-179; Hall et al., 2009, Bioinformatics, 25:1564-1565). The mean mKate2 fluorescence was determined from 50,000 event counts on Attune™ NxT Flow Cytometer and converted to p2 copy number by using a calibration curve. To determine per-base substitution rates, the corrected m was normalized to the average cell titer, the p2 copy number, and the target size for functional leu2* reversion (2.33 bp). 95% confidence intervals were similarly scaled.
To identify error-prone TP-DNAP2s, a small library of TP-DNAP2s diversified at locations hypothesized to be responsible for DNAP fidelity was screened. […] Four distinct site-saturation mutagenesis libraries were generated, each diversifying S370, Y424, L474, or F882 in TP-DNAP2 encoded on pGA55-reTP-DNAP2. Due to unsuccessful attempts to generate a strain with a full deletion of p2-encoded TP-DNAP2 and simultaneous integration of mKate, URA3, and leu2*, each library was transformed into GA-Y021 for convenient screening. However, since GA-Y021 still encodes wt TP-DNAP2 on p2-delORF1-mUL*, p2 mutation rates measured in this format are the result of in tandem replication of p2 by wt TP-DNAP2 and each TP-DNAP2 variant encoded in trans. 6-fold coverage of each library was maintained by picking 190 yeast colonies and passaging under selection for URA3 to stabilize the copy number of p2-delORF1-mUL* in the presence of the newly introduced TP-DNAP2 variants. […]
Regarding B1, the “Per-base substitution rate pf p2” value was 12.2 (7.33-17.9) ×10^−10.

As to B2, the “Per-base substitution rate pf p2” value is given as 5.76 (2.88-9.33) ×10^−10.

Consider B3, for which the “Per-base substitution rate pf p2” value is listed as 8.37 (4.80-12.6) ×10^−10.

As for B4, the “Per-base substitution rate pf p2” value was 14.8 (9.32-21.1) ×10^−10.

The same experiment, now with this note: p2 substitution rate over no variant in trans.
With B1, the Fold increase was found to be 2.0.

Turning to B2, the Fold increase was determined as 1.0.

In the case of B3, the Fold increase was 1.4.

Molecule B4 displayed a Fold increase of 2.5.
